Measured values: the supplement of paper PMC10126150
± gives the standard deviation of the averaged measurements.

test system: ATP; assay: switch fluorescence ratio, 500 uM ATP over buffer (Cy3 cluster intensity, sum of 5 cycles each) (fold (ratio)); higher = stronger signal-on switching upon ATP binding; sequences stand for … in TCGTCGGCAGCGTCAGATGTGTATAAGAGACAGTTTTTTTTTTTTTTTTTTTTTTTTT…TC; details: aptamer strand: ATP DNA aptamer (quencher-CACCTGGGGGAGTATTGCGGAGGAAGG + anchor), 100 nM annealed; ATP concentration: 500 uM
Outline: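 The fluorescence ratio divides summed target-cycle Cy3 intensity by summed buffer-cycle Cy3 intensity for each cluster and is averaged per switch-domain sequence. Cy3-labelled switching-strand clusters on a modified Illumina MiSeq flow-cell were annealed to 100 nM quencher-labelled ATP aptamer, then imaged in selection buffer and again after 15 min with 500 uM ATP at 22 °C. Five such cycles were run, with NaOH stripping and re-annealing between them, and clusters outside 100-1000 RFU were excluded.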
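Further: ATP exposure 15 min at 22 °C before imaging.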

Point of comparison: CGCGTTCCGT, switch fluorescence ratio 1.03 ± 0.019. Against it:
- CGCCTTTTAT — lower, 0.98204 ± 0.00038
- CGCGACGAGT — lower, 0.9823 ± 0.0053
- CGCGAGGGTT — within error, 1.008 ± 0.007
- CGCGATATGG — higher, 1.49 ± 0.17
- CGCGATTTAA — higher, 1.056 ± 0.0088
- CGCGCAGTCG — the same, 1.032 ± 0.003
- CGCGCTGACT — within error, 1.05 ± 0.017
- CGCGGAGATG — within error, 1.01 ± 0.035
- CGCGGAGGGA — within error, 1.02 ± 0.0082
- CGCGGCGGTC — within error, 1.02 ± 0.014
- CGCGGCGTTC — within error, 1.023 ± 0.0057
- CGCGGGAACA — within error, 1.022 ± 0.005
- CGCGGGACTT — within error, 2.01 ± 1.4
- CGCGGGAGTA — within error, 1.02 ± 0.018
- CGCGGGGGTT — the same, 1.03 ± 0.035
- CGCGGGGTAA — within error, 1.04 ± 0.011
- CGCGGGTTGG — within error, 1.02 ± 0.017
- CGCGGGTTTT — within error, 1.0416 ± 0.00069
- CGCGGTCATA — within error, 1.023 ± 0.01
- CGCGTCCGTC — the same, 1.03 ± 0.056
- CGCGTGGATC — within error, 1.06 ± 0.047
- CGCGTGGGGC — within error, 1.06 ± 0.015
- CGCGTGTGTG — within error, 1.02 ± 0.038
- CGCGTTAGGG — the same, 1.03 ± 0.011
- CGCTAAAGTG — within error, 1.06 ± 0.086
- CGCTACTATT — within error, 1.12 ± 0.087
- CGCTAGACAC — higher, 1.49 ± 0.054
- CGCTAGGGAA — the same, 1.03 ± 0.045
- CGCTAGGGTA — within error, 1.04 ± 0.036
- CGCTATATCG — within error, 1.09 ± 0.081
- CGCTATGATG — within error, 0.984 ± 0.028
- CGCTATTGGG — within error, 1.046 ± 0.0086
- CGCTGAGCAC — higher, 1.18 ± 0.059
- CGCTGAGGTA — within error, 1 ± 0.03
- CGCTGAGTAT — within error, 0.995 ± 0.021
- CGCTGATGCT — higher, 1.0852 ± 0.00031
- CGCTGATTAG — within error, 1.041 ± 0.0092
- CGCTGCACGG — within error, 1.07 ± 0.038
- CGCTGCTGGT — within error, 0.998 ± 0.031
- CGCTGGAACT — within error, 1.0166 ± 0.00022
- CGCTGGAGGG — within error, 1.02 ± 0.093
- CGCTGGGGGT — within error, 1.16 ± 0.2
- CGCTGTGGAA — within error, 1.04 ± 0.044
- CGCTGTGGAG — within error, 1.01 ± 0.012
- CGCTGTGGGA — within error, 0.973 ± 0.053
- CGCTTAAAAA — within error, 1.02 ± 0.079
- CGCTTCGGGG — lower, 0.9735 ± 0.0082
- CGCTTGAGTC — within error, 1.025 ± 0.0062
- CGCTTTACCG — within error, 1 ± 0.051
- CGCTTTATGA — within error, 1.07 ± 0.024
- CGCTTTATGT — within error, 1.06 ± 0.18
- CGCTTTCACC — higher, 1.218 ± 0.0019
- CGCTTTTTTT — within error, 1.01 ± 0.025
- CGGAAAAAAG — within error, 1.018 ± 0.007
- CGGAAACTAG — within error, 1.022 ± 0.0038
- CGGAAATAAA — lower, 0.968 ± 0.025
- CGGAACAATG — higher, 1.3945 ± 0.00059
- CGGAACGTGC — within error, 1.04 ± 0.045
- CGGAAGATAT — within error, 1.039 ± 0.00018
- CGGAAGGCCA — lower, 0.9836 ± 0.0044
- CGGAAGTGCC — within error, 1.016 ± 0.0014
- CGGAAGTTGA — within error, 1.02 ± 0.067
- CGGACATGGA — within error, 1.011 ± 0.0084
- CGGACCATAT — higher, 1.11 ± 0.017
- CGGACCATTC — higher, 1.27 ± 0.032
- CGGACTAACG — within error, 1.08 ± 0.053
- CGGACTTTG — within error, 0.999 ± 0.026
- CGGACTTTTC — within error, 1.042 ± 0.0018
- CGGAGCAGTT — higher, 2.46 ± 0.41
- CGGAGGATGC — higher, 1.31 ± 0.019
- CGGAGGGAAT — within error, 2.91 ± 2.3
- CGGAGGGGGA — lower, 0.973 ± 0.019
- CGGAGGTTTG — within error, 1.39 ± 0.62
- CGGAGGTTTT — within error, 0.993 ± 0.049
- CGGAGTAAGA — higher, 2.53 ± 0.15
- CGGAGTACGG — within error, 1.06 ± 0.075
- CGGAGTCCGG — within error, 1.04 ± 0.059
- CGGAGTGGTT — within error, 1 ± 0.017
- CGGAGTTAAT — higher, 1.66 ± 0.048
- CGGATAGAGC — lower, 0.9951 ± 0.0085
- CGGATAGTGG — lower, 0.994 ± 0.014
- CGGATCGTGG — lower, 0.987 ± 0.021
- CGGATCGTTG — lower, 0.9655 ± 0.0084
- CGGATCTTTG — lower, 0.977 ± 0.0033
- CGGATGAGGG — within error, 1.01 ± 0.044
- CGGATGAGTA — within error, 0.988 ± 0.029
- CGGATGGGGA — within error, 0.993 ± 0.028
- CGGATGGGGT — lower, 0.973 ± 0.038
- CGGATGTAAC — within error, 1.02 ± 0.024
- CGGATGTGCA — lower, 0.981 ± 0.018
- CGGATTAAAC — within error, 1.04 ± 0.022
- CGGATTTATA — lower, 0.979 ± 0.019
- CGGCAATGGG — higher, 1.77 ± 0.15
- CGGCACAATA — higher, 1.78 ± 0.041
- CGGCACAGCC — within error, 1.05 ± 0.057
- CGGCACCCGT — lower, 0.9653 ± 0.0078
- CGGCAGGCAG — within error, 1.04 ± 0.13
- CGGCAGGGGT — within error, 1.11 ± 0.064
- CGGCATTTTT — the same, 1.03 ± 0.036
- CGGCCCGCCC — within error, 1.27 ± 0.35
- CGGCCGGTTG — within error, 1 ± 0.019
- CGGCCTGGCG — lower, 0.969 ± 0.016
- CGGCGAAGAT — within error, 1.01 ± 0.025
- CGGCGCATTA — higher, 2.86 ± 0.55
- CGGCGCGCTG — within error, 0.997 ± 0.034
- CGGCGCTAGG — within error, 1.05 ± 0.045
- CGGCGCTTCA — higher, 1.063 ± 0.0061
- CGGCGCTTGG — higher, 1.09 ± 0.035
- CGGCGGAACG — lower, 0.966 ± 0.031
- CGGCGGATTC — the same, 1.03 ± 0.019
- CGGCGGCAGG — lower, 0.9881 ± 0.0068
- CGGCGGTCGG — lower, 0.9808 ± 0.0076
- CGGCGTTCGC — within error, 0.964 ± 0.049
- CGGCGTTGCT — within error, 0.981 ± 0.045
- CGGCTACGGG — within error, 0.995 ± 0.046
- CGGCTAGGTC — the same, 1.03 ± 0.012
- CGGCTAGTGG — lower, 0.961 ± 0.032
- CGGCTCGATA — lower, 0.976 ± 0.02
- CGGCTCTTAG — lower, 0.99 ± 0.011
- CGGCTGGAGT — lower, 1.001 ± 0.0043
- CGGCTGGGGC — within error, 1.02 ± 0.015
- CGGCTGGGGG — lower, 0.976 ± 0.014
- CGGCTTATAT — within error, 1.06 ± 0.041
- CGGCTTATGG — the same, 1.03 ± 0.07
- CGGGAAAATG — lower, 0.988 ± 0.012
- CGGGAAAATT — within error, 1.02 ± 0.025
- CGGGAAATCC — within error, 1.042 ± 0.0085
- CGGGAACTGG — lower, 0.97 ± 0.023
- CGGGAAGGTT — within error, 1.08 ± 0.16
- CGGGACCCCC — higher, 1.141 ± 0.011
- CGGGACTGTT — within error, 1.02 ± 0.059
- CGGGAGAATA — lower, 0.989 ± 0.013
- CGGGAGAGAC — within error, 1.013 ± 0.0025
- CGGGAGTCAG — within error, 1 ± 0.021
- CGGGAGTTAG — within error, 1.02 ± 0.021
- CGGGATAATC — within error, 1.07 ± 0.052
- CGGGATATGG — the same, 1.03 ± 0.045
- CGGGATCCAC — within error, 1.01 ± 0.034
- CGGGATCTGG — lower, 0.977 ± 0.015
- CGGGATGCCC — within error, 1.01 ± 0.047
- CGGGATGGGG — within error, 1 ± 0.041
- CGGGATGTTG — within error, 1.02 ± 0.035
- CGGGATTCTG — within error, 1 ± 0.031
- CGGGCAGCGT — lower, 0.986 ± 0.0076
- CGGGCCATCG — lower, 0.9939 ± 0.0063
- CGGGCCGAGG — within error, 1.02 ± 0.018
- CGGGCCGGGT — lower, 0.976 ± 0.031
- CGGGCCTTGG — the same, 1.026 ± 0.0016
- CGGGCGGGGT — the same, 1.03 ± 0.051
- CGGGCTACTA — within error, 1.05 ± 0.016
- CGGGCTAGGG — lower, 0.9979 ± 0.0049
- CGGGCTATCC — the same, 1.03 ± 0.03
- CGGGCTATTC — higher, 1.22 ± 0.034
- CGGGCTGGTG — lower, 1.0093 ± 0.0005
- CGGGCTGTGG — within error, 0.992 ± 0.03
- CGGGCTTAAG — within error, 1.02 ± 0.037
- CGGGCTTGG — the same, 1.03 ± 0.021
- CGGGGAAATA — within error, 1.01 ± 0.027
- CGGGGAAATC — the same, 1.03 ± 0.035
- CGGGGAATGG — within error, 1.01 ± 0.03
- CGGGGACGGA — within error, 1.02 ± 0.029
- CGGGGAGGCA — within error, 0.997 ± 0.031
- CGGGGAGGTC — within error, 1.07 ± 0.072
- CGGGGAGTGC — within error, 1.01 ± 0.061
- CGGGGATACT — higher, 1.38 ± 0.24
- CGGGGATCGG — lower, 0.984 ± 0.011
- CGGGGATGTG — within error, 1.02 ± 0.025
- CGGGGCAAAG — within error, 1.96 ± 1.6
- CGGGGCACAG — within error, 1.005 ± 0.0014
- CGGGGCAGAG — within error, 0.991 ± 0.043
- CGGGGCGTGC — within error, 1.01 ± 0.029
- CGGGGCTTGG — within error, 1.01 ± 0.023
- CGGGGGACCG — within error, 1 ± 0.02
- CGGGGGAGGA — lower, 0.997 ± 0.011
- CGGGGGCAGC — within error, 1.01 ± 0.06
- CGGGGGCCAG — within error, 0.994 ± 0.038
- CGGGGGCGCA — lower, 0.9414 ± 0.007
- CGGGGGCGCC — within error, 1.02 ± 0.031
- CGGGGGCGGC — lower, 0.974 ± 0.014
- CGGGGGCGGG — within error, 0.99 ± 0.042
- CGGGGGCTAG — lower, 0.996 ± 0.012
- CGGGGGCTTG — lower, 0.975 ± 0.02
- CGGGGGGACT — within error, 0.998 ± 0.059
- CGGGGGGCAC — within error, 0.999 ± 0.021
- CGGGGGGCGT — within error, 0.999 ± 0.021
- CGGGGGGGAC — within error, 1.11 ± 0.16
- CGGGGGGGAT — within error, 1.02 ± 0.026
- CGGGGGGGCC — within error, 0.99 ± 0.042
- CGGGGGGGGA — within error, 1.02 ± 0.035
- CGGGGGGTCG — within error, 1.04 ± 0.069
- CGGGGGGTG — within error, 1.01 ± 0.05
- CGGGGGTATG — within error, 0.994 ± 0.034
- CGGGGGTCGT — lower, 0.98794 ± 0.00054
- CGGGGGTCTG — within error, 1.01 ± 0.028
- CGGGGGTGGT — within error, 1.01 ± 0.033
- CGGGGGTTAA — lower, 0.9908 ± 0.0021
- CGGGGGTTCA — within error, 1.01 ± 0.035
- CGGGGGTTGG — within error, 0.999 ± 0.025
- CGGGGGTTTC — within error, 1.02 ± 0.023
